Experimental findings from paper PMC3793974, “Solution NMR Structure and Histone Binding of the PHD Domain of Human MLL5” (PLoS ONE, 2013) are described below.

Where no end group is shown, it is not given here. Me3 = trimethyl-lysine; Me2 = dimethyl-lysine

The target of the assay is T1, PHD domain of human MLL5 (Ser109-Asp188) (human, UniProt Q8IZD2 109-188, 15N-labelled in the NMR titration).
T1 construct: Mixed Lineage Leukemia 5 (MLL5), human, PHD finger, residues 109-188, 80 residues; Cloned into the vector pET28a-MHL (GenBank EF456735 is the vector's id); The tag is detected with anti-His in the peptide array; also called MLL5PHD; MLL5 PHD finger; source: E. coli BL21 (DE3) Codon plus RIL, purified (Ni column, Superdex200, Source 30Q; for NMR 13C/15N-labelled from minimal media, Ni-NTA)
T1 sequence (looked up): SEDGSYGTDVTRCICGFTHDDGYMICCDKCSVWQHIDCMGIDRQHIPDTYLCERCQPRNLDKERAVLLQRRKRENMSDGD
Description: fluorescence polarisation; 40 nM fluorescein-labelled peptide, MLL5PHD titrated (low to high micromolar); 20 mM Tris-HCl pH 7.5, 50 mM NaCl, 0.01% Triton X-100; 384-well plates. As to conditions: both partners purified. (In general: Fluorescence polarisation rises when a labelled molecule tumbles more slowly, as on binding a larger partner.)

B1: H3K4me2 peptide labelled with fluorescein (peptide)
chain: ARTK(Me2)QTARKSTGGKA
modifications: not fully specified (N-terminus); also: fluorescein label, C- or N-terminal (sources disagree)
Broadly, the Kd is the equilibrium constant for the complex coming apart. Read a low Kd as a tighter complex. B1 gave a Kd of roughly 16 µM.

B2: H3K4me3 peptide labelled with fluorescein (peptide)
chain: ARTK(Me3)QTARKSTGGKA
modifications: not fully specified (N-terminus); also: fluorescein label, C- or N-terminal (sources disagree)
In turn, B2 returned an equilibrium dissociation constant (Kd) of roughly 16 µM.
